Test system: peptide library, one residue held at a place counted from the S/T acceptor
Test: relative phosphorylation of the sub-library (ratio to the mean residue at this position); higher = residue favoured
Settings: human
Procedure, shortened: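 Each biotinylated degenerate peptide sub-library fixed one residue at one position around a central Ser/Thr and was incubated with a purified recombinant kinase, a human or orthologue construct, in 384-well plates. The 90 min reactions, under kinase-specific conditions, contained 50 μM peptide and 50 μM ATP spiked with γ-32P-ATP. Phosphorylation was read by phosphorimaging spots on streptavidin membranes and quantifying them by densitometry. Relative sub-library phosphorylation expresses each value as a ratio to the mean residue at that position.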

NEK8, construct: aa1-322, sequence (Q86SG6 1-322, looked up): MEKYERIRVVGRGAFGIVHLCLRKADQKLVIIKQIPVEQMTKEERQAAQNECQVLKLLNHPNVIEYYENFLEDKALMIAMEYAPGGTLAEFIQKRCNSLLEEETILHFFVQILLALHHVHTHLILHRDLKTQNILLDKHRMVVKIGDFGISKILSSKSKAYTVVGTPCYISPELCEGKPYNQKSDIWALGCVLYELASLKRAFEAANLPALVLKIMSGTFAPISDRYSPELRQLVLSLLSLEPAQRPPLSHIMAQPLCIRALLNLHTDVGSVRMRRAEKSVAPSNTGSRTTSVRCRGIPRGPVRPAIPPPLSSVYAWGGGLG
STK24, construct: Full length, sequence (Q9Y6E0 whole entry, looked up): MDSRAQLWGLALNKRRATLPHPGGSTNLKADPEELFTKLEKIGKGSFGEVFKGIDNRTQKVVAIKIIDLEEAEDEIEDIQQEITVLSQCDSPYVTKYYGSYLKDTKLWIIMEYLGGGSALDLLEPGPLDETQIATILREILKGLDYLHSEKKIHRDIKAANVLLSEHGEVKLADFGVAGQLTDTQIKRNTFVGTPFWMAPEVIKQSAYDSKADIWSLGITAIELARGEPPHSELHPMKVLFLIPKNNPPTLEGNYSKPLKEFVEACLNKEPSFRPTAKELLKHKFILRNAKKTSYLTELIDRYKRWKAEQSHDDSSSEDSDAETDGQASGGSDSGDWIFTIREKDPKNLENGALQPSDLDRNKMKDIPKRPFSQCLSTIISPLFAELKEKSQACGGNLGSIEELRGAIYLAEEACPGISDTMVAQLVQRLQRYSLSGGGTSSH
CDK18, construct: Full length, sequence (Q07002 whole entry, looked up): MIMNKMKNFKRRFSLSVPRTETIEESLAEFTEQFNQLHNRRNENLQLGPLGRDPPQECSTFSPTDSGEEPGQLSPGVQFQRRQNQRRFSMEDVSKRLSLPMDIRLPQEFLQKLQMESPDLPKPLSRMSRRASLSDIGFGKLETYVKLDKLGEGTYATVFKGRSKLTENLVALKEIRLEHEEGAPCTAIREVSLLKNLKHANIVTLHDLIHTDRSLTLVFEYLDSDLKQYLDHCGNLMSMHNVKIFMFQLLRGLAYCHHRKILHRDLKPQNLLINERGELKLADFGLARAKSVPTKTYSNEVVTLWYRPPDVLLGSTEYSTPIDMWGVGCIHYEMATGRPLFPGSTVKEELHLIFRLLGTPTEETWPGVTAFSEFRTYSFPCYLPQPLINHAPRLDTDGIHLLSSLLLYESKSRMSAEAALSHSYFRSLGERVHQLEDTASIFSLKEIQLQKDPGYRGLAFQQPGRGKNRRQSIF

NEK8, construct: aa1-322 (from UniProt Q86SG6)
relative phosphorylation
Settings	at +1	at +2	at +3	at +4	at -1	at -2	at -3	at -4	at -5
A fixed	0.671	0.695	0.727	0.752	0.875	0.751	0.814	0.847	0.971
D fixed	0.407	0.332	0.655	0.562	1.08	1.53	0.918	1.68	1.61
E fixed	0.37	0.28	0.459	0.527	1.16	1.09	0.764	1.25	1.09
F fixed	1.97	1.12	1.7	1.11	0.777	0.882	0.995	0.89	1.02
G fixed	0.654	0.656	0.992	0.944	0.602	1.09	0.975	0.936	1.05
H fixed	1	1.01	1.16	0.97	0.967	0.963	1.05	0.983	1.04
I fixed	0.826	0.761	0.74	0.815	0.555	0.679	0.69	0.606	0.658
K fixed	0.933	2.05	1.4	1.81	1.5	0.755	0.799	0.918	1.08
L fixed	1.06	0.845	1.04	0.978	1.11	1.25	1.56	0.792	0.771
M fixed	2.03	0.89	0.95	0.97	1.36	0.959	1.52	0.858	0.76
N fixed	0.945	0.841	1.05	1.02	1.11	1	0.837	1.09	1.06
P fixed	0.239	0.525	0.826	1.32	0.433	0.485	0.878	0.926	1.11
Q fixed	1.33	0.836	0.861	1.12	1.34	0.75	0.924	0.839	0.935
R fixed	1.34	3.13	1.54	1.54	1.72	1.59	1.84	0.966	0.956
V fixed	0.7	0.798	0.628	0.66	0.63	0.625	0.465	0.597	0.712
W fixed	1.29	0.948	1.26	1.03	0.775	1.33	1.05	2.01	1.3
Y fixed	1.24	1.28	1.02	0.86	0.999	1.26	0.924	0.805	0.871
pThr fixed	0.717	0.574	0.612	0.672	0.593	1.01	1.17	1.13	1.4
pTyr fixed	0.64	0.439	0.819	0.583	1.42	1.66	1.3	1.05	1.38

CDK18, construct: Full length (from UniProt Q07002)
relative phosphorylation
Settings	at +1	at +2	at +3	at +4	at -1	at -2	at -3	at -4	at -5
A fixed	0.339	0.788	1.01	1.29	1.11	1.37	1.15	1.33	1.04
D fixed	0.148	0.632	0.364	0.521	0.489	0.384	0.605	0.835	0.919
E fixed	0.127	0.377	0.292	0.355	0.348	0.463	0.719	0.823	0.831
F fixed	0.196	0.581	1.03	0.759	0.57	0.705	0.539	0.696	0.844
G fixed	1.13	0.837	0.922	2.23	2.13	1.11	2.12	1.24	1.15
H fixed	0.274	1.23	0.695	1.21	0.987	0.807	1.05	1.02	1.37
I fixed	0.178	0.705	1.03	0.634	0.247	0.72	0.569	0.788	0.804
K fixed	0.316	2.28	0.862	1.33	1.67	0.671	0.937	1.48	1.53
L fixed	0.199	0.877	2.5	0.581	0.561	0.963	0.589	1	1.16
M fixed	0.196	0.901	1.46	0.699	0.934	0.887	0.648	0.718	0.799
N fixed	0.239	1.11	0.806	1.16	1.02	0.777	1.06	1.27	1.12
P fixed	12.4	0.972	2.05	0.831	1.71	3.93	2.29	1.43	1.12
Q fixed	0.279	1.06	1.03	0.969	1.13	0.999	1.03	1.01	0.77
R fixed	0.281	2.23	0.719	1.79	1.9	0.94	1.33	0.941	0.827
V fixed	0.263	0.744	1.04	0.703	0.379	0.852	0.768	0.596	0.677
W fixed	0.236	0.782	0.703	1.09	0.911	0.886	0.852	1.05	1.12
Y fixed	0.184	0.887	0.498	0.845	0.914	0.543	0.748	0.765	0.911
pThr fixed	0.415	0.681	0.949	0.372	0.316	0.823	0.982	0.951	0.78
pTyr fixed	0.508	0.48	0.815	0.591	0.341	0.572	0.943	0.82	1.07

BCKDK, construct: Full length (from UniProt O14874)
relative phosphorylation
Settings	at +1	at +2	at +3	at +4	at -1	at -2	at -3	at -4	at -5
A fixed	0.707	0.962	0.785	0.937	0.696	0.951	0.894	0.988	1.02
D fixed	0.393	1.11	2.51	0.922	1.32	0.571	0.616	0.717	0.856
E fixed	0.404	0.981	1.16	0.957	0.351	0.544	0.654	0.821	0.72
F fixed	0.915	0.909	1.11	1.13	0.742	1.19	1.26	1.14	1.18
G fixed	0.489	1.36	1.11	0.99	1.3	1.72	1.09	1.18	1.14
H fixed	0.698	1.31	0.929	0.973	1.69	1.33	1.17	1.14	1.26
I fixed	1.59	0.502	0.71	0.645	0.565	0.913	0.854	0.871	0.794
K fixed	0.483	0.704	0.538	0.577	0.425	0.901	0.8	0.886	1.02
L fixed	2.58	0.628	1.03	0.656	0.607	0.855	0.877	0.964	0.858
M fixed	2.1	0.966	0.889	0.781	0.577	1.05	1.01	1.1	0.962
N fixed	0.513	1.16	0.754	0.761	4.15	0.917	0.932	0.786	0.944
P fixed	0.404	0.61	0.831	1.08	0.432	0.866	0.976	1.05	0.819
Q fixed	0.69	1.17	0.749	0.724	0.619	0.867	0.804	0.75	0.678
R fixed	0.671	1.43	0.834	0.859	0.562	0.893	1.02	0.937	1.01
V fixed	1.84	0.553	0.641	0.709	0.514	0.699	0.734	0.791	0.879
W fixed	0.688	1.35	1.53	2.53	1.06	1.51	1.74	1.64	1.73
Y fixed	1.84	1.28	0.896	1.76	1.39	1.23	1.57	1.24	1.13
pThr fixed	0.535	0.616	0.681	0.682	0.541	0.847	0.904	0.931	0.896
pTyr fixed	0.502	0.681	0.53	1.46	0.581	0.994	1.31	1.14	0.896

STK24, construct: Full length (from UniProt Q9Y6E0)
relative phosphorylation
Settings	at +1	at +2	at +3	at +4	at -1	at -2	at -3	at -4	at -5
A fixed	0.627	0.917	0.954	0.963	1.01	0.99	1.02	1.14	1.34
D fixed	0.166	0.344	0.465	0.516	0.762	0.388	0.58	0.738	0.689
E fixed	0.175	0.268	0.443	0.499	0.483	0.344	0.586	0.869	0.689
F fixed	1.29	0.471	0.999	0.679	0.781	1.19	0.855	0.867	0.873
G fixed	0.498	1.11	1.15	0.979	1.88	1.34	1.48	1.34	1.2
H fixed	0.946	1.11	1.17	1.03	1.12	1.44	1.05	1.08	1.07
I fixed	1.77	0.493	0.827	0.727	0.43	0.782	0.675	0.743	0.713
K fixed	0.827	3.1	2.09	2.43	1.57	1.41	1.84	1.51	1.87
L fixed	1.76	0.472	1.01	0.716	0.98	0.635	0.737	0.75	0.719
M fixed	1.61	0.6	0.843	0.846	0.897	0.702	0.738	0.81	0.68
N fixed	0.547	0.871	0.812	0.998	1.27	1.05	1.06	0.97	0.902
P fixed	0.401	0.807	0.802	0.952	0.751	0.765	0.959	0.94	1.2
Q fixed	0.673	0.789	0.822	0.936	0.945	0.91	0.935	1.01	0.926
R fixed	0.919	3.78	1.79	2.24	1.79	1.44	1.71	1.5	1.5
V fixed	1.47	0.615	0.828	0.693	0.546	0.83	0.71	0.772	0.851
W fixed	2.07	0.626	1.04	1.04	0.809	1.15	1.05	1.01	0.906
Y fixed	1.25	0.618	0.968	0.76	0.981	1.64	1.01	0.951	0.868
pThr fixed	1.19	1.05	0.892	0.801	0.865	1.28	1.61	1.33	1.43
pTyr fixed	0.488	0.389	0.748	0.55	1.1	0.833	1.15	0.836	1.16

From the supplement of paper PMC9876800
